Reference: the DeepSol protein solubility set

Assay: soluble on expression in E. coli; label from the status in PepcDB or PDB records

Sequence | soluble on expression in E. coli
MPKKAGATSKGKNQTKEPETAPPAAGPVATDPKGFVTIAIHAKPGSRQNAVTDLSTEAVGVAIAAPPSEGEANAELCRYLSKVLDLRKSDVVLDKGGKSREKVVKLLASTTPEEVLEKLKTEAEKK | soluble
MGSDKIHHHHHHMHVGIFADGGYEKGMGHVVRMKRLAEGLKQRCLITFYTNQDSEAFLHEEHWQVIVKPELQQHEFILREIKSKKLDLLLFDILGAPAELLKKIKTETDAKIVLFEEKNGKSIQYSDAVINGIYGDIRSRVYVQGNTRIYEGPDYLILHPAFQAAREDYTLKKDCRNILVALGGSDPKQLIFKVLAAADQVPDIKDKNMMFVMGSASPHQEAVRRRIEKKPQYKMIEQTNDMAGLMKQADAAIVAGGISLYEAICIGVPCLVLSQVEHQTATAKTFADQGAALDLGLGELVPDETLIYQMSRIMSSYPLRLSLHKGGRPLVDGKGIIRVTAILQDLYEQEI | not soluble
MGSDKIHHHHHHMTFILNSQNVFNYLLEKGLCNQSEQPPAKIEQLTAKNFNLLVTLPGDRKLLVKQERHNPEGKAAGEFLIEWRIQEFLQQFPNLSNYRSFLPEVLHFDVENSIIVFKYFDDYRDLMDFYTKGNSFNIEIATAIGNILGTIHRDTFNRQEYQEFFTKNSDNLMGDQVLHLVRRLERVEPEIFGIVPSDGLKFFALYQRYDSLGQAIAELGNAVTPSCLTHNDLKLNNILLHKDWQDSSNNIVRLIDWERSAWGDPAFDLGTLISSYVQIWLGSLVISNSLSIEESLRLAITPLEVLQPSISTLTQAYLKTFPEILDHRSDFLQRVVQFTGFTLIQQIQAMIQYQKSFGNMGIAMLQVAKTLLSRPVQSMPTIFGAAAVELGHLNNSPV | not soluble
MGSDKIHHHHHHMEIKEMVSLARKAQKEYQATHNQEAVDNICRAAAKVIYENAAILAREAVDETGMGVYEHKVAKNQGKSKGVWYNLHNKKSIGILNIDERTGMIEIAKPIGVVGAVTPTTNPIVTPMSNIIFALKTCNAIIIAPHPRSKKCSAHAVRLIKEAIAPFNVPEGMVQIIEEPSIEKTQELMGAVDVVVATGGMGMVKSAYSSGKPSFGVGAGNVQVIVDSNIDFEAAAEKIITGRAFDNGIICSGEQSIIYNEADKEAVFTAFRNHGAYFCDEAEGDRARAAIFENGAIAKDVVGQSVAFIAKKANINIPEGTRILVVEARGVGAEDVICKEKMCPVMCALSYKHFEEGVEIARTNLANEGNGHTCAIHSNNQAHIILAGSELTVSRIVVNAPSATTAGGHIQNGLAVTNTLGCGSWGNNSISENFTYKHLLNISRIAPLNSSIHIPDDKEIWEL | not soluble
MAEQQPSKEEKKEDKKDEKEEELPAPSVQQSIRQLPKIQITDDDKGEQLPECTEGEWDASDEPFSAELLNVKNAPNKVSVFSGPYRSKETIEKIKKFRAAMPPVIPIIDERPDKLAQMMSRIFSEIIDGRDLSKIKVFFFIK | not soluble
MKLLKKPAGLKKRKVISKRIKIEKKPSSEDEGSSDEEVPKLDGEGSLDGSEDEDDGTVTVEKGGVKKHKLDLEKLKQSDPEFFKFLQQEDADLLNMEDDGDDDEDDDEDDEDEEEEESDDDEDDEEDDDKTKIKKIRKPKIKSDNSGRLIVDSNVYSYLQQVLVLDDETSTPTNPSDVRMAVDVFVACVARVGADIEAPKYVINEQSIFEAVVRMCFQAMPDILKRLLKAKPEGDKVLFSKTAIKKYQTYVRTYLHAMIVFLNEVQTTEVLIATIKAMTRLVDLYAHFSRMSKLLIKAVVRIWSRKTLECRLPAFVCMNLLVKNYPQHFVPLYKTAYVAFVANSKIVTNETWPLLQFMHRTFAELTILNPEQAYKYAFVYIRQTAVHLRNAMISKGRKDLIFSIYNWQMMQCMYMWVRVIAKAHSVNGAEQIGELVYPLIQVIVGIFKLCNAPTFLPLRLHCCQLLIQLQASCTNYIPILQVSCDCLEELARELKSKPKPVKGAVKLPDIECTLKCSSQFSDLPQWRKVISEHVFRTMMQSAHLLASQAAFPDVVLPINHRISAILETMKNGDHAHLFRGFQTKLKEHSRFVLDVLARKSVDINDEMQVRAVRFDLNNHDSPIKTFYRQWEKVWKMKERSAVENSKKDDKKKKKEEEAAAAKKRKPNETVEDEDDVKPEVSKAKRKRIKIGAAAKKADASVPDQFADMSMWSDED | soluble
MGSDKIHHHHHHMSKEIDIEYYHQLALQKQKEHRKVLANLKKKPPKNLDKIAQQIHQEVFEEIDCTACANCCKTLGPDFKEADITRIAKYFKMKLPAFEAEFLQVDADGDKVFKSMPCPFLGGDNLCSIYDVRPKACREFPHTDRKKIHQINHLTIKNTLTCPAAYLFVEKLKDKL | not soluble
MSSYKNILVAIDGSYESELAFEKGVSVALRNDANLLLTHVVDTRALQSVATFDAYIYEKLEQEAHSVLDDYENQARERGLEKVRQIIEFGNPKPLLATEIPEREHVDLIMLGATGLNAFERLLIGSSSEYILRHAKVDLLVVRDPEKTL | not soluble
MSEANIIHSRYGLRCEKLDKPLNLGWGLDNSAVLHCPGELPTGWLCDALDQIFIAAPQLSAVALPWAEWREEPQALTLFGQVKSDIIHRTAFWQLPLWLSSPANRASGEMVFDAEREIYFPQRPPRPQGEVYRRYDPRIRRMLSFRIADPVSDAERFTRWMNDPRVEYFWEQSGSLEVQTAYLERQLTGKHAFPLIGCFDDRPFSYFEIYWAAEDRIGRHYSWQPFDRGLHLLVGEQQWRGAHYVQSWLRGLTHYLLLDEPRTQRTVLEPRTDNQRLFRHLEPAGYRTIKEFDFPHKRSRMVMADRHHFFTEVGL | not soluble
MPVIKDAVCSLCGSLCDDITVTVEDNKITKIENACILGHSKFVGMFEHDRIETPMVRKDGELVPVSYEEAIEAAAKILVNSRRTLSYGWCSTSCEAVSGAIQLAEETGSIIDSTANVCHGPTALAAQEKGSPSASLGEIKNRADVIVFWGCNPVHAHPRHMSRYSSFSKGFFTEKGRKGRKMVVIDVRKTDTAKIADKYVEIEQGSDLLLVTALRSIVNGHEDVVPETVAGVPKAEVLELAETLKNAKFTCIFFGMGVTQSRSKYKNGDAVSSLISDLNQHTKAVMIGMRGHYNVTGFGQVATWETGFPMAIDFSRGYPYYNPGETGANDLLVREEPDAAIIAAADAGAHFPQKAVRHLARIPVIQIDPYANPTTEIADVVIPAAVVGIEAEGTAYRMDAISLRMKKLIDTEFKTDEEIVKDLTAKVREMKRGV | not soluble
MNSDPTRERILHGLITLYILKELVKRPMHGYELQKSMFETTGQALPQGSIYILLKTMKERGFVISESSVNEKGQQLTVYHITDAGKKFLCDHSQALQLARKIIDDLLSTVDIIENRN | soluble
MAFKSDVIFEEIKERIATDKEMVKKVGTSFRMTIAGADGKTKVWTIDAKSDTPYVGDDSSRPVEIEINIKDSDFIAIAAGKMKPDQAFMQGKMKLKGNIAKAMKLRTILDPKMLKAKL | soluble
MRDYVEIGMGREARRTYHLDSVAIVPSRRTRSSKDVDTTWHIDAYTFDIPFMSHPTDALATPDFVIEMDKQGGLGVINAEGLWGRHADLDAAIQEVITAYGDDELDLGSCNRATKKLQELHAAALDTELLVERIAQVRSSGAT | not soluble
MGNESTPLRTITQALKLARPGTVIQLTPGNYSVETGETFPLMLKPGVSIQGNTSNKGQEVKIQGGGLFLSRSFGGQNVAIVGANQAGLTGVTITNPNPRGYGLWIESSNPVISENTFTGNTQDGISVTGNSATTITKNYFYRNGANGITIGGNSPAQVRENLFEETGFGINVAQNAVPMLVSNQIQNNRSGIIVQANARPILRNNLIQGSKEDGVVAIAQAMPDLGNATEAGGNEFRNNARHDINASAAKQAIAAVGNILDTKRITGKVALEHHHHHH | not soluble
MRQDDLKLLGKIVTTHGIRGQLKVASFSGEFDTILSLETVVLKGKDGRMETFPVARATVHHDRVLLSLTPFTNINEVLHLISAVSYAHRDQFPPLEEGEYYWCDLIGLQVVTAAGTVIGRLDSILPTESHDVYVVRGADREYLIPAVEDVVVQVDLEAGTMTVSPPEGLLDLLEHHHHHH | soluble
MPKVNLYATFRDLTGKSQLELPGATVGEVLENLVRAYPALKEELFEGEGLAERVSVFLEGRDVRYLQGLSTPLSPGATLDLFPPVAGGGFERTFGAFPPWLLERYLEEWGGTREGEGVYRLPGAVVRFREVEPLKVGSLSIPQLRVEVEGEEAERWFERIAFAASRGGG | soluble
YNPIDNIQNATNRRNTVLANMVDDEKLSQADADSAAGVDMASRLVDTYQGTGDDYRYPSYFDAVIEEATKTYGLSEDEIVKNGY | not soluble
GQDRFVYTCNECKHHVETRWHCTVCEDYDLCINCYNTKSHTHKMVKWGLGLD | soluble
RYRGSKWAGKKSIPAFIDNDYNEADQVIENLQRNELTPREIADFIGRELAKGKKKGDIAKEIGKSPAFITQHVTLLDLPEKIADAFNTGRVRDVTVVNELVTAFKKRPEEVEAWLDDDTQEITRGTVKLLREFLDEKGRDPNTVDAFNGQTDAERDAEAGDGQDGEDGDQDGKDAKEK | soluble
MKDEISNPDLGAIYTTKILGVLLENWPKQTYLCCSEVTGIDFDEESVFDSFSPQPYPKEWEVCRDLIVWLENEGFIRSEGSRGSSFGFFSVEITMSAMTALNQVPDPLDPESTRTLKDTLKDIAKSGSGKLADKIMDKAFFAFVTMLEKSAG | not soluble
MTTNDTYEATYAIPMHCENCVNDIKACLKNVPGINSLNFDIEQQIMSVESSVAPSTIINTLRNCGKDAIIRGAGKPNSSAVAILETFQKYTIDQKKDTAVRGLARIVQVGENKTLFDITVNGVPEAGNYHASIHEKGDVSKGVESTGKVWHKFDEPIECFNESDLGKNLYSGKTFLSAPLPTWQLIGRSFVISKSLNHPENEPSSVKDYSFLGVIARSAGVWENNKQVCACTGKTVWEERKDALANNIK | soluble
SRLSRIDLAVDDFHGLFGREYAKKAYSDDAFRTARAGRAPNGGERLVSEPNGKIINESFEVGSRESRIYWRIYNKAAQLGLDMHWFRNEVELKDMPIDVLLNIEGYFAGLCAYSASIINSLPVKVVTKKRQVALDIHSRIKWARRQVGKTLFDISKHFGGDLERVFGALISKEIHDDSLNLPDSYM | not soluble
MAKTLYEKLFDAHVVYEAQNETPLLYIDRHLVHEVTSPQAFDGLRAHGRQVRQPGKTFATMDHNVSTQTKDINASGEMARIQMQELIKNCKEFGVELYDLNHPYQGIVHVMGPEQGVTLPGMTIVCGDS | not soluble
MAKKNNKTKIQKPEAALQTDVAQITATGRVIAEHPSNFITPQKMRALFEDAESGDIRAQHELFADIEERDSDIAANMGTRKRALLTLNWRVAPPRNATPEEEKLSDQAYEMMDSLPTLEDLIMDLMDAVGHGFSALEVEWVFSDGLYLPRNFIHRPQSWFKWDKDNGLLLRTRENPEGEALWPLGWVVHTQKSRSVQQARNGLFRTLSWLYMFKHYAVHDFAEFLELYGMPIRIGKYGAGATKEEKNTLLRAVAEIGHNAAGIMPEGMEIELHNAANGTTATSNPFLQMADWCEKSAARLILGQTLTSGADGKSSTNALGNIHNEVRRDLLVSDAKQVAQTITSQIIGPFLQINYPHADPNRVPKFEFDTREPKDIAVFADAIPKLVDVGVQIPESWVRDKLVIPDVQEGEAVLVRQVPDNPVNRTALAALSAHTVPSKATGRHQEILDGALDDALVEPDFNSQLNPMVRQAVAALNACNSYEEADAALNALYPNLDNAKLRTYMQQALFISDILGQDHA | soluble
